In publication PMC7012691 one finds Km, kcat and kcat/Km data, which are given here for one protein.

One may read the Km as the concentration of substrate that gives half-maximal velocity. The kcat is the number of substrate molecules converted per active site and unit of time at saturation. What is called kcat/Km is the second-order rate constant that governs catalysis at low substrate concentration.

Substrate in this series: O=[N+]([O-])c1ccc(O[C@H]2O[C@H](CO)[C@@H](O)[C@H](O)[C@@H]2O)cc1
The series can be described thus: purified protein. Format: biochemical, Enterococcus faecalis. The settings on record: apparent, MES 100 mM, pH 6.0, CaCl2 4 mM, 37 °C, 10 min.

B1: EfMan-I (Enterococcus faecalis V583) (protein)
chain: MNIQAIDTRHGTANQHSFSNGNCLPYTGVPFGMNFYAPQTTDQKGSWWFHPEDRTFQGYRVTHQPSPWMGDFSHLLMTPVSGSLSELSLFHAQSSYRPEESLFSPVEINLTQLRYQITSQLIPSMYGGILTIDYQQKDNHLLLTLPGRYQVKQLDDHQVAVKVINYSGCEDPDFSFYFVLHFEQPLTKWFAPSSGEDGKILLSFGNIAQQVVHFSSSFISEKQAQLNLAREISLRSTEMLQQGIADWHNYFDRLKVTHENPEHTKTFYHTLYRTFLFPQTFYELDENQQPIHYDTFSQTVRPGVLYTNNGFWDTYKTVYPLFSLIAQEKYEEMLEGFLNSYNETGFLPKWLSPDERGLMPGTLIDAVIADAAVKKIRPDLMPQFLEAMKKGATQQSERENYGRQGTLDYLKYGYVPSTYHESVNHTLDYAYSDFCISQVAKTLNDSETATFYRQQALNYQQLFNPETGFMQAKDTEGNFRPDFLDIRWGKDYAEGSAWQSSFAVYQDFAGLIKLYGSELAFEKKLIQLCNQAPNFNVEGYGFEIHEMSEMAAIDFGQLAISNQPSFHYPFLFSYIGKPEMAQPLLKQLMQTFDASPTGYPGDEDNGSMSAWYIFNSLGFYPVTPGTGEYVIGMPLVQTAEVKLSNGKQLTIQTSPNKVQQQFIHEIQLNQEKHTAPYFTHQELLNGGTLDYQLGIVPNPQNTAERPFSLSTEK
For B1, the Km is 11 ± 1.7 mM, the kcat is 0.49 ± 0.03 s⁻¹ and the catalytic efficiency (kcat/Km) was 47 M⁻¹ s⁻¹.
